The assay deals with T1, factor VIIIa (Homo sapiens, UniProt P00451).
T1 construct: purchased Dr. Leon Hoyer (American Red Cross, Rockville, Md.)
T1 sequence (P00451 20-759 limits assumed): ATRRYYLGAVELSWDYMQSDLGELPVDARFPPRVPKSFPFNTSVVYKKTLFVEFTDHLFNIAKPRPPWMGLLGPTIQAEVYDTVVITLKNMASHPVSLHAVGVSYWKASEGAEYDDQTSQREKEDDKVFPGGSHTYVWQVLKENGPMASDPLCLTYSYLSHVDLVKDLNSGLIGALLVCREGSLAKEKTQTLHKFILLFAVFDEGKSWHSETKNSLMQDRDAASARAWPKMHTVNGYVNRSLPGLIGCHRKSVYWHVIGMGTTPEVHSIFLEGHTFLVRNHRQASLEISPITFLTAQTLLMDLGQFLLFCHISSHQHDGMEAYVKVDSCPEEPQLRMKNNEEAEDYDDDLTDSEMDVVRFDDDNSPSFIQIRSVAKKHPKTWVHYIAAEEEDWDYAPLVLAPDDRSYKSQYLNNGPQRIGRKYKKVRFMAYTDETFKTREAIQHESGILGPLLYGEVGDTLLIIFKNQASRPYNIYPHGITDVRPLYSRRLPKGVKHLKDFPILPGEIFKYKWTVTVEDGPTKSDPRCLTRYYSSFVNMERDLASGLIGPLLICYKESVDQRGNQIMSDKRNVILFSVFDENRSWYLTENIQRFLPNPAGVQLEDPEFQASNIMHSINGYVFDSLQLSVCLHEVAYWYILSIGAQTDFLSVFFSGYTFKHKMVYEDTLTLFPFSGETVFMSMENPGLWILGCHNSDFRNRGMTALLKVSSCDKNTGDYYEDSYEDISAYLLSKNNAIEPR
T1 sequence (P00451 1668-2351 limits assumed): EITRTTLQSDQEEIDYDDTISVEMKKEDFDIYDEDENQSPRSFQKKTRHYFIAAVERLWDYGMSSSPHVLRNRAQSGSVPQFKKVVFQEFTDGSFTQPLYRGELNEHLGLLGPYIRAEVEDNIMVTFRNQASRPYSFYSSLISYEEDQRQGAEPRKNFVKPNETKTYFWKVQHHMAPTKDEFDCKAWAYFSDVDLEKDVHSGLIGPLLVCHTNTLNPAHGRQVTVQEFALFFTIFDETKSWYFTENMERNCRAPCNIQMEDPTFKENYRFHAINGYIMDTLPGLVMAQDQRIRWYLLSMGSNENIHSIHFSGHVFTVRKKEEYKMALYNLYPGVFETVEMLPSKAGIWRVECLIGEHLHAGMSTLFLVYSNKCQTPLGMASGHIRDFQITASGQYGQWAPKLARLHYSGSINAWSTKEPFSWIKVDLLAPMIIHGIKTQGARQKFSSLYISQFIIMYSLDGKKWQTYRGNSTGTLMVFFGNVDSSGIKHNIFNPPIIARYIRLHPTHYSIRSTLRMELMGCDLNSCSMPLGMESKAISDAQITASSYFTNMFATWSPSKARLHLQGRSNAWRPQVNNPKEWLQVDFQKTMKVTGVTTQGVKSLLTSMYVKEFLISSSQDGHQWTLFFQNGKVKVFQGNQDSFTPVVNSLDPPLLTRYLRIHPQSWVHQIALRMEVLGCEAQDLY
Description: inhibition of Xa generation by active site-blocked (DEGR) IXa proteins, presence of phospholipid (Kd,app for VIIIa). It counts as biochemical. The procedure:
Apparent Kds of factor VIIIa binding to various active site-blocked factor IXa proteins were determined from inhibition experiments as detailed in Mathur et al., 1997, supra. […] Reactions were carried out for 2 min and the rates of factor X activation were measured as outlined above.
Various DEGR-ck-inhibited factor IXa proteins were prepared for these experiments as follows. IXNP, IXWT, and each mutant factor IX at 200 μg/ml was activated by factor XIa (2 μg/ml) for 90 min. in TBS, pH 7.4 (0.05 M Tris, 0.15 M NaCl, pH 7.4) containing 5 mM Ca^2+.
Enzymol. 74, 481–508 given below:
[formula] where y is the rate of Xa formation in the presence of a given concentration of DEGR-IXa protein represented by x, a is the maximum rate of Xa formation in the absence of DEGR-IXa, and s is the slope factor. Each point was weighted equally and the data were fitted to Equation 1 using the nonlinear regression analysis program obtained from Erithacus Software (GraFit). […] To obtain the Kd,app values for the interaction of DEGR-IXa proteins with factor VIIIa, the following equation was used, as described by Cheng and Prusoff, 1973, Biochem. Pharmacol. 22, 3099–3108 and further discussed by Craig, 1993, Trends Pharmacol. Sci. 6, 68–71.

Regarding “IXaV331A: activated factor IX mutant V331A”, the Kd (active site-blocked (DEGR) IXa proteins, 10 μM phospholipid, read-out: Kd, app for interaction with factor VIIIa, PL-plus system) is 0.61 ± 0.08 nM. Under “presence of phospholipid”, the “fold-reduction in affinity for factor VIIIa compared with DEGR-IXaWT” value came to 11 fold.

The record behind these values is patent publication US7109170B2, “Region of factor IXa protease domain that interacts with factor VIIIa and methods therefor” (Saint Louis University, priority 1999, dated 2006).
